Measured values published in the nanobody polyreactivity screen of Harvey et al. (2022).

Assay: yeast display, Sf9 membrane polyspecificity reagent, FACS + sequencing; frameworks hold sequencing errors
In short: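 A synthetic nanobody library was expressed on Saccharomyces cerevisiae BJ5465 by galactose induction for 36–48 hours. The library was stained for 1 hour at 4 °C with 10% biotinylated, detergent-solubilized Sf9 membrane reagent and enriched with streptavidin microbeads before FACS. Low and high (top ~1%) gates were set on anti-HA fluorescence for expression and streptavidin fluorescence for reagent binding, and each polyreactivity label reflects the gate of origin.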

Row | Sequence | polyreactivity (PSR sort gate)
1 | QVQLVESGGGLVQAGGSLRLSCAASGRTFEDYTMGWYRQAPGKERELVAAITGGGSTNYADSVKGRFTISRDNAKNTVYLQMNSLKPEDTAVYYCAARRKGGHISYGYDYWGQGTQVTVSS | high polyreactivity
2 | QVQLVESGGGLVQAGGSLRLSCAASGRTFEGNAMGWYRQAPGKERELVAAISWSGGSTYYANSVKGRFTISRDNAKNTVYLQMNSLKPEDTAVYYCAAVPVHTGSLYWGFTTGYDYWGQGTQVTVSS | low polyreactivity
3 | QVQLVESGGGLVQAGGSLRLSCAASGRTFEQNAMGWYRQAPGKEREFVAAITASSGRTSYADSVKGRFTISRDNAKNTVYLQMNSLKPEDTAVYDCAADLADRERRHNYWGQGTQVTVSS | low polyreactivity
4 | QVQLVESGGGLVQAGGSLRLSCAASGRTFEQNAMGWYRQAPGKERELVASITSVGSTDYADSVKGRFTISRDNAKNTVYLQMNSLKPEDTAVYYCAKTLCSQNYDFDYWGQGTQVTVSS | low polyreactivity
5 | QVQLVESGGGLVQAGGSLRLSCAASGRTFERYAMGWYRQAPGKERELVAAISWSGSSTYYADSVKARFTISRDISKNTVYLHMNSLKPEDTAVYYCNALFQQRYGYWGQGTQVTVSS | low polyreactivity
6 | QVQLVESGGGLVQAGGSLRLSCAASGRTFERYAMGWYRQAPGKERELVADISSSGSTNYADSVKGRFTISRDNAKNTVYLQMNRLNPEDTAVYYCAADYWRHWYWDVVEFDYWGQGTQVTVSS | high polyreactivity
7 | QVQLVESGGGLVQAGGSLRLSCAASGRTFETNAMGWYRQAPGKERELVAAISRSGGSTRYADSVKGRFTISRDNAKNTVYLQMNRLKPEDTAVYYCAVRVGLGGGYWGQGTQVTVSS | high polyreactivity
8 | QVQLVESGGGLVQAGGSLRLSCAASGRTFETYAMGWYRQAPGKERELVATIRSSGSTNYADSVKGRFTISRDNAKNTVYLQMNSLKPEDTAVYYCAAVYVYRTSYLISLYDYGYWGQGTQVTVSS | high polyreactivity
9 | QVQLVESGGGLVQAGGSLRLSCAASGRTFEWYAMGWYRPAPGKERELVAVISSGGSTNYADSVKGRFTISRDNAKNTVYLQMNSLIPEDTAVYYCAVLQARDGYWLYLYDYWGQGTQVTVSS | low polyreactivity
10 | QVQLVESGGGLVQAGGSLRLSCAASGRTFEYNAMGWYRQAPGKERELVAAISSSGGSTRYADSVKGRFTISRDNAKNTVYLQMNSLKPEDTAVYYCAKRGYTSSRRWIYDYRGQGTQVTVSS | high polyreactivity
11 | QVQLVESGGGLVQAGGSLRLSCAASGRTFFGYAMGWYRQAPGKERELVAAISSRGDSTYYADSVKGRFTISRDNAKNTVYLQMNSLKPEDTAVYYCNTYSTVYSYDYDYWGQGTQVTVSS | low polyreactivity
12 | QVQLVESGGGLVQAGGSLRLSCAASGRTFFGYAMGWYRQAPGKERELVAAITSSGGRTYYADSVKGRFTISRDNAKNTVYLQMNSLKPEDTAVYYCNTVLSFRSVNIYRGRGDYWGQGSQVTVSS | high polyreactivity
13 | QVQLVESGGGLVQAGGSLRLSCAASGRTFFIYAMGWYRQAPGKERELVARITGGGRTYYADSVKGRFTISRDNAKNTVYLQMNSLKPEDTAVYYCAKRSYVTYPPYDYWGQGSQVTVSS | high polyreactivity
14 | QVQLVESGGGLVQAGGSLRLSCAASGRTFFKNALGWYRQAPGKERELVASISSRSGTTYYADSVKGRFTISRDNAKNTVYLQMNSLKPEDTAVYYCAASRNRYSYGYWGQGTQVTVSS | high polyreactivity
15 | QVQLVESGGGLVQAGGSLRLSCAASGRTFFKYDMGWYRQAPAKERELVAAITWTGGSTYYADSVKGRFTISRDYAKNTVYLQMNSLKPEDTAVYYCAAADYYYVEYDYWGQGTQVTVSS | low polyreactivity
16 | QVQLVESGGGLVQAGGSLRLSCAASGRTFFKYVMGWYRQAPGKERELVAAISYRSGSTYYADSVKGRFTISRDNAKNTVYLQMNSLKPEDTAVYYCAKEPPPVKGDYWGQGTQVTVSS | low polyreactivity
17 | QVQLVESGGGLVQAGGSLRLSCAASGRTFFLYAMGWYRQAPGKEREFVATISYGGGSTYYADSVKGRFTISRDNAKNTVYLQMNSLKPEDTAVYYCNALNTSQYAEGTSDYDGNMGYWGQGTQVTVSS | low polyreactivity
18 | QVQLVESGGGLVQAGGSLRLSCAASGRTFFPYAMGWYRQAPGKERELVAAITRGGSTNYADSVKGRFTISRDNAKNTVYLQINSLKPEDTAVSYCATVVRYSNARGDYWGQGTQVTVSS | low polyreactivity
19 | QVQLVESGGGLVQAGGSLRLSCAASGRTFFPYAMGWYRQAPGKERELVATIRYRGGSTSYADSVKGRFTISRDNAKNTVYLQMNSLKPEDTAVYYCAARLQRTPRVYSSYFEYDYWGHGTQVTVSS | low polyreactivity
20 | QVQLVESGGGLVQAGGSLRLSCAASGRTFFRNAMGWYRQAPGKERELVAAISSSGGSTYADSVKGRFTISRDNAKNTVYLQMNSLKPEVTAVYYCATRFQYTRTWYSRKYDYWGQGTQVTVSS | high polyreactivity
21 | QVQLVESGGGLVQAGGSLRLSCAASGRTFFRYAMGWYRQAPGKERELVASISGGITNYADSVKGRFTISRDNAQNTVYLQMNSLKPEDTAVYYCAADDYPYSYSSQFQYTGYEYWGQGTQVTVSS | low polyreactivity
22 | QVQLVESGGGLVQAGGSLRLSCAASGRTFFRYVMGWYRQAPGKERELVAAISTRGGSTYYADSVKGRFTISRDNAKNTVYLQMNSLKPEDTAVYYCAARFKVRDYSYNYWGQGTQVTVSS | high polyreactivity

Row | Sequence | polyreactivity (PSR sort gate)
23 | QVQLVESGGGLVQAGGSLRLSCAASGRTFFVNAMGWYRQAPGKERELVAGISIGGRTSYADSVKGRFTISRDNAKNTVYLQMNSLKPEDTAVYYCATSYFPWSRKRYGYWGQGTQVTVSS | high polyreactivity
24 | QVQLVESGGGLVQAGGSLRLSCAASGRTFFVNAMGWYRQAPGKERELVAVISTSGGSTSYADSVKGRFTISRDNPKYTVYFQMNSLKPEDTAVYYCAALVLGPYVSSFVYQQDDSWGLGTQVTVSS | high polyreactivity
25 | QVQLVESGGGLVQAGGSLRLSCAASGRTFFWYAMGWYRQAPGKEREFVADINSRGTSTYADSVKGRFTISRDNAKNTVYLQMNSLKPDDTAVYYCAAYRGHLKRYYYWGQGTQVTVSS | high polyreactivity
26 | QVQLVESGGGLVQAGGSLRLSCAASGRTFFWYAMGWYRQAPGKERELVAAISSSTRTKYADSVKGRFTISRDNAKNTVYLQMNSLKPEDTAVYYCNAKGWVWPFPSYYPYDSWGQGTQVTVSS | high polyreactivity
27 | QVQLVESGGGLVQAGGSLRLSCAASGRTFFYNAMGWYRQAPGKERELVATITWTGDSTYADSVKGRFTISRDNAKNTVYLQMNSLKPEDTAVYYCAAGKPVILTGDYDYWGQGTQVTVSS | low polyreactivity
28 | QVQLVESGGGLVQAGGSLRLSCAASGRTFFYNGMVWYIQAPGKQRELVAAISGSGSRTYYADSVKGRFTISRDNAKNTVYLQMNSLKPEDTAVYYCAATRVISHYRFDYWGQGTEVTVSS | high polyreactivity
29 | QVQLVESGGGLVQAGGSLRLSCAASGRTFFYYAMGSYRQAPGKERELVATITKRGGSTYYADSVKGRFTISRDNAKNTVYLQMNSLKPEDTAVYYCNAAGNPVSRYHYDYWGQGTQVTVSS | high polyreactivity
30 | QVQLVESGGGLVQAGGSLRLSCAASGRTFGANDMGWYRQAPGKDSELVAAITYSGGRTNYADSVKGRFTISRDNAKNSVYLQMNSLKPEDTAVYYCAAGGWRDRSRYNYWGQGTQVTVSS | high polyreactivity
31 | QVQLVESGGGLVQAGGSLRLSCAASGRTFGAYAMGLYRQEPGKETELVAAISKSGGRTYYADSVKGRFTISRDYAKNTVYLLMNSLKPEDTAVYYCNARGFRGEYDYWGEGTQVTVSS | high polyreactivity
32 | QVQLVESGGGLVQAGGSLRLSCAASGRTFGAYAMGWYRQAPGKERELVAAISNGGRTYYADSVKGRFTISRDNAKNTVYLQMNSLKPEDTAVYYCNKVRSPWYDSWGQGTQVTVSS | high polyreactivity
33 | QVQLVESGGGLVQAGGSLRLSCAASGRTFGAYAMGWYRQAPGKERELVATITVSGGSTYYADSVKGRFTISRDNAMNTVSLQLNSLKPEDTAVYYCATEFYEEYWGQGTQVTVSS | low polyreactivity
34 | QVQLVESGGGLVQAGGSLRLSCAASGRTFGDYAMGWYRQAPGKERELVAAISSSGGRTYYADSVKGRFTISRDNAKNTVYLQMNSLKPEDTAVYYCAAQSKYYQYYSWGQGTQVTVSS | high polyreactivity
35 | QVQLVESGGGLVQAGGSLRLSCAASGRTFGEYAMGWYRQAPGKERELVADITNGSRTYYADSVKGRFTISRDNAKNTVYLQMNSLKPEDTAVYYCAADWWKEVDYWGQGTQVTVSS | low polyreactivity
36 | QVQLVESGGGLVQAGGSLRLSCAASGRTFGEYTMGWYRQAPGKERELVAAISSAGRTNYADSVKGRFTISRDNAKNTVYLQMNSLKPEDTAVYYCAADWTDDVPGYDYWGQGTQVTVSS | low polyreactivity
37 | QVQLVESGGGLVQAGGSLRLSCAASGRTFGFNAMGWYRQAPGKDRELVASITRGGRTDYADSVKGRFTISRDNAKNTVYLQMNSLKPEDTAVYYCAAQSGWHHTGGMYYWGQGTQVTVSS | high polyreactivity
38 | QVQLVESGGGLVQAGGSLRLSCAASGRTFGFYGMGWYRQAPGKEREFVAAITRRGGSTYYADSVKGRFTISRDNAKNTVYLQMNRLKPEDTAVYYCAAGYSSRYRGGLDYWGQGTQVTVSS | high polyreactivity
39 | QVQLVESGGGLVQAGGSLRLSCAASGRTFGFYTMGCYRQAPGKERELVAAISWRGGSTYYADSVKGRFTISRDNAKNTVYLQMYSLKPEDTAVYYCAVRTNFGKMYYWGQGTQVTVSS | high polyreactivity
40 | QVQLVESGGGLVQAGGSLRLSCAASGRTFGFYTMGWYRQAPGKERELVAGISRGGSTTYADSVKGRFTISRDNAKNTVYLQMNSLKPEDTAVYYCNADRSHYWLPYGVRFDYWGQGTQVTVSS | low polyreactivity
41 | QVQLVESGGGLVQAGGSLRLSCAASGRTFGGNAMGWYRQAPGKERELVAAINSDGGRTYYADSVKARFTISRDNAKNTVYLQMNSLKPEDTAVYYCNRAYRKSYTGYGYDYWGQGTQVTVSS | high polyreactivity
42 | QVQLVESGGGLVQAGGSLRLSCAASGRTFGGNAMGWYRQAPGKERQLVASISSSGGRTYYAVSVKGRFTISRDNAKNTVYLQMNSLKPEDTAVYYCAVAWNVRGVGARQRYIYGYWGQGTQVTVSS | high polyreactivity
43 | QVQLVESGGGLVQAGGSLRLSCAASGRTFGGNVMGWYRQAPGKERELVAAITWSGGRTYYADSVKGRFTISRDNAKNTVYLQMNSLKPEDTAVYYCNARNGFTVKKFYYWGQGTQVTVSS | high polyreactivity
